Source: PMC8809517, “Cofactor-independent RNA editing by a synthetic S-type PPR protein”

Assays:
Assay in all cases: high-throughput RNA pulldown from lysate on Ni-NTA beads; HRP: 50 mM Tris pH 8, 150 mM NaCl, 1 mM beta-mercaptoethanol, 50 ug/ml BSA, 3 ug/ml yeast RNA, 0.5% heparin; ITC and FP: Tris pH 8, 200 mM KCl, 5% glycerol; MST: 50 mM Tris pH 8, 200 mM NaCl, 1 mM DTT, BSA, heparin, 0.05% Tween 20
Conditions in all cases: tags: N-terminal His-eGFP
[1] = molecular target: T1, GFP-9S library array, motif 4 ND N98D;D124K (synthetic construct, N98D;D124K)
T1 chain: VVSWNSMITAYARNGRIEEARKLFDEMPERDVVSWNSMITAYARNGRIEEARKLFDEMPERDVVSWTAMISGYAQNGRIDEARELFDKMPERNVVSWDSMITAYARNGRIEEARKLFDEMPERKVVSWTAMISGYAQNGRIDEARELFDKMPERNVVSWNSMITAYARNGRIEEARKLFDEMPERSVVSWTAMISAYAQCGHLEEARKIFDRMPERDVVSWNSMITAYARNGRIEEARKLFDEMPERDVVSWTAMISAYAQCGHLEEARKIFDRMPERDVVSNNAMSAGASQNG

[2] = molecular target: T2, GFP-9S library array, motif 4 ND N98V;D124L (synthetic construct, N98V;D124L)
T2 chain: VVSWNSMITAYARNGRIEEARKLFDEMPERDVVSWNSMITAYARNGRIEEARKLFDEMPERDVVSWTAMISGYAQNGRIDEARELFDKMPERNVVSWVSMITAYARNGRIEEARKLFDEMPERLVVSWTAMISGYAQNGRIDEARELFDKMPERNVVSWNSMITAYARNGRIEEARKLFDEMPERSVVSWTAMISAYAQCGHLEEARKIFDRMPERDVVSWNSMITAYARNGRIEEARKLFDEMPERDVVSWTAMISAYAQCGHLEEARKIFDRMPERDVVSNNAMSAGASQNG

[3] = molecular target: T3, GFP-9S library array, motif 4 ND N98Q;D124I (synthetic construct, N98Q;D124I)
T3 chain: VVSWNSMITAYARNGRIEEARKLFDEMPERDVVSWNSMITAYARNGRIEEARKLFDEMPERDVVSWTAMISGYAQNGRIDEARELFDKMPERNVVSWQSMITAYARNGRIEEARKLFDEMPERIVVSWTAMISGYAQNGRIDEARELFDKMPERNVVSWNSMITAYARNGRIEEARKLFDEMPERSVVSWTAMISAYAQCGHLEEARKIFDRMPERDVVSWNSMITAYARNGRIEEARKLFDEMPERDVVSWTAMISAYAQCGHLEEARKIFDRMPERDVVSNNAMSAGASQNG

[4] = molecular target: T4, GFP-9S library array, motif 4 ND N98D;D124T (synthetic construct, N98D;D124T)
T4 chain: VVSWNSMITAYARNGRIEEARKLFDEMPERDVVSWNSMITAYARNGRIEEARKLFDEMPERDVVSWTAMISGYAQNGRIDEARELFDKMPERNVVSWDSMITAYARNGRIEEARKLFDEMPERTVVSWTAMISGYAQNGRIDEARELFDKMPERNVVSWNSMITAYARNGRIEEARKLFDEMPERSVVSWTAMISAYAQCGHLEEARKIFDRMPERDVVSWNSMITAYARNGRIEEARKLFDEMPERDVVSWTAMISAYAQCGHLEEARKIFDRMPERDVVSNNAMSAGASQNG

[5] = molecular target: T5, GFP-9S library array, motif 4 ND N98S;D124V (synthetic construct, N98S;D124V)
T5 chain: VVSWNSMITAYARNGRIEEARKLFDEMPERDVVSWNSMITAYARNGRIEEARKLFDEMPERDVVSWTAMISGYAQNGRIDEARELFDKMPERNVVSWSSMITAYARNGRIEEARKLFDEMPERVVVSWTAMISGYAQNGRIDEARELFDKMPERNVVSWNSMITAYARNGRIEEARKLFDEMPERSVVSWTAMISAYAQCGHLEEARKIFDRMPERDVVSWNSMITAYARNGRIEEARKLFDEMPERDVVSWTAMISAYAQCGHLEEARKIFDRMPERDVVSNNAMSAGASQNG

## AUUAAACGUGA (ssRNA) [IR-rpoA-A]
[1]; label: 5' IRDye 800CW
  Kd: 334 nM
[2]; label: 5' IRDye 800CW
  Kd: 199 nM
[3]; label: 5' IRDye 800CW
  Kd: 315 nM
[4]; label: 5' IRDye 800CW
  Kd: 320 nM
[5]; label: 5' IRDye 800CW
  Kd: 51.2 nM

## AUUACACGUGA (ssRNA) [Cy5-rpoA]
[1]; label: 5' Cy5
  Kd: 154 nM
[2]; label: 5' Cy5
  Kd: 88.5 nM
[3]; label: 5' Cy5
  Kd: 142 nM
[4]; label: 5' Cy5
  Kd: 123 nM
[5]; label: 5' Cy5
  Kd: 114 nM

## AUUAUACGUGA (ssRNA) [IR-rpoA-U]
[1]; label: 5' IRDye 800CW
  Kd: 475 nM
[2]; label: 5' IRDye 800CW
  Kd: 126 nM
[3]; label: 5' IRDye 800CW
  Kd: 344 nM
[4]; label: 5' IRDye 800CW
  Kd: 301 nM
[5]; label: 5' IRDye 800CW
  Kd: 152 nM

## AUUAGACGUGA (ssRNA) [Cy5-rpoA-G]
[1]; label: 5' Cy5
  Kd: 134 nM
[2]; label: 5' Cy5
  Kd: 112 nM
[3]; label: 5' Cy5
  Kd: 102 nM
[4]; label: 5' Cy5
  Kd: 106 nM
[5]; label: 5' Cy5
  Kd: 74.5 nM
